Reference: patent EP1053001B1 (AMYLIN PHARMACEUTICALS, INC., dated 2010)
No end group written: not given here.

T1: rat calcitonin C1a receptor (rat, UniProt P32214 25-516)
T1 sequence (looked up): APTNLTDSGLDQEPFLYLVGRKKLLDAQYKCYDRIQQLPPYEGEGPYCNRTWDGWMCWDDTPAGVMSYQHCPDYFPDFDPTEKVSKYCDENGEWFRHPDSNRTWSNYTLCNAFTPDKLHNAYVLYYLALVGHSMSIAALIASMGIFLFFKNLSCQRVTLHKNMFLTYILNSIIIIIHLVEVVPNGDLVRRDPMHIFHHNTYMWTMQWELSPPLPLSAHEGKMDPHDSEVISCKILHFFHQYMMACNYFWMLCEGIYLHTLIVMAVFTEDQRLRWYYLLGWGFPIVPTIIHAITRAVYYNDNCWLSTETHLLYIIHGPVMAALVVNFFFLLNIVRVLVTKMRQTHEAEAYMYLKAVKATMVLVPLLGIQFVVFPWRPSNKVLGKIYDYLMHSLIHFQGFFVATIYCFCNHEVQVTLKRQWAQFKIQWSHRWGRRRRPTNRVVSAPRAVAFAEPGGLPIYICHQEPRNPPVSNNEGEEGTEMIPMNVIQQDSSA

T2: calcitonin receptors (human T47D / MCF7 breast carcinoma cells) (human, UniProt P30988 25-474)
T2 sequence (looked up): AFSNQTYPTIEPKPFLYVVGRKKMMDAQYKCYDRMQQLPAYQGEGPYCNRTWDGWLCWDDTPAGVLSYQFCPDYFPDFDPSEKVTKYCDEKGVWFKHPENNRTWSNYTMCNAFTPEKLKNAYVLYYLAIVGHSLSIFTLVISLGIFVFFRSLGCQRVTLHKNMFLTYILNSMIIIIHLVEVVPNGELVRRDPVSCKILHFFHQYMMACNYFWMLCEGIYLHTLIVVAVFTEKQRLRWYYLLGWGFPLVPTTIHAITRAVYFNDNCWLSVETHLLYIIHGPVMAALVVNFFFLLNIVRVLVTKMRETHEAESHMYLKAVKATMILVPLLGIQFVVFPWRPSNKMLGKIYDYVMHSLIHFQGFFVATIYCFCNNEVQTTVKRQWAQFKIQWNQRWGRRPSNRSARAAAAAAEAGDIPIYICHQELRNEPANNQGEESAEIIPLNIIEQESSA

B1: Compound 1 (peptide)
peptide: LSTCVLGRLSQELHRLQTYPRTNTGSNTY
modifications: not fully specified
B2: Compound 4 (peptide)
peptide: LSTAVLGRLSQELHRLQTYPRTNTGSNTY-NH2
modifications: not fully specified
B3: Compound 5 (peptide)
peptide: LSTSVLGRLSQELHRLQTYPRTNTGSNTY-NH2
B4: Compound 6 (peptide)
peptide: XLSTAVLGRLSQELHRLQTYPRTNTGSNTY
modifications: acetylated with acetic anhydride (site not given)

Legend:
[1] = target: T1, rat calcitonin C1a receptor; assay: cell-based or functional assay
[2] = target: T3, amylin receptors (rat nucleus accumbens membranes) (rat); assay: radioligand competition vs 125I-BH-rat amylin, rat nucleus accumbens membranes
T3 construct: Assayed as a tissue membrane preparation, not on intact cells; also called amylin (nucleus accumbens) receptors

[3] = target: T2, calcitonin receptors (human T47D / MCF7 …); assay: cell-based or functional assay

Binder | IC50 [2] [nM] | also measured
B1 |  | EC50 of adenyl cyclase stimulation, HEK293 cells stably transfected with rat calcitonin C1a receptor [1]: 0.97 nM
B2 | 0.066 | 
B3 | 0.092 | 
B4 |  | fold lower potency than human calcitonin, adenylyl cyclase, MCF7-7 cells [3]: 80 fold
